The experiment deals with eIF3a-HA (Trypanosoma brucei (endogenous in procyclic form strain 29-13)). Nature of the experiment: proximity ligation.

DRBD18 (natural protein) displayed a PLA dots per cell (dots per cell) of 8.

Values taken from PMC10653379.
